Measured values taken from the supplement of paper PMC7125110.
± gives the standard error. For some assays here: This sample holds only a part of the variants without activity.

B1: glmS ribozyme (parent)
chain: AUAAAAGCGCCAGAACUACAGAAAUGUAGUUGACGAGGAGGAGGUUUAUCGAAUUUUCGGCGGAUGCCUCCAAA

How the values were obtained:
Conditions in all cases: with glucosamine-6-phosphate
glucosamine-6-phosphate [1] = variants of: B1; assay: kcat; higher = faster cleavage; RNA array
In short: (§1)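 Over ~14 h at 37 °C, tiles were imaged as glucosamine-6-phosphate (40 μM to 10 mM) in HEPES/KCl/Mg(OAc)2 buffer flowed across sequenced MiSeq chips. The chips carried barcoded ribozyme variants transcribed in situ by E. coli RNA polymerase and tracked with a hybridised Cy3 probe. After normalisation to baseline and to non-cleaving reference variants, one- or two-exponential decay fits of per-tile medians gave kobs. kcat and KM followed from weighted Michaelis–Menten fits across concentrations.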

glucosamine-6-phosphate [2] = variants of: B1; assay: self-cleavage kobs at 640 uM GlcN6P; higher = faster cleavage; RNA array
In short: as §1

glucosamine-6-phosphate [3] = variants of: B1; assay: self-cleavage kobs at 40 uM GlcN6P; higher = faster cleavage; RNA array
In short: as §1

glucosamine-6-phosphate [4] = variants of: B1; assay: self-cleavage kobs at 160 uM GlcN6P; higher = faster cleavage; RNA array
In short: as §1

glucosamine-6-phosphate [5] = variants of: B1; assay: self-cleavage kobs at 2500 uM GlcN6P; higher = faster cleavage; RNA array
In short: as §1

glucosamine-6-phosphate [6] = variants of: B1; assay: self-cleavage kobs at 10000 uM GlcN6P; higher = faster cleavage; RNA array
In short: as §1

glucosamine-6-phosphate [7] = variants of: B1; assay: KM; higher = weaker cofactor use; RNA array
In short: as §1

Row | Variant | kcat (glucosamine-6-phosphate [1]) [s⁻¹] | self-cleavage kobs at 640 uM GlcN6P (glucosamine-6-phosphate [2]) [s⁻¹] | self-cleavage kobs at 40 uM GlcN6P (glucosamine-6-phosphate [3]) [s⁻¹] | self-cleavage kobs at 160 uM GlcN6P (glucosamine-6-phosphate [4]) [s⁻¹] | self-cleavage kobs at 2500 uM GlcN6P (glucosamine-6-phosphate [5]) [s⁻¹] | self-cleavage kobs at 10000 uM GlcN6P (glucosamine-6-phosphate [6]) [s⁻¹] | KM (glucosamine-6-phosphate [7]) [µM]
1 | G9A U47G | < 1e-05 | < 1e-05 | – | – | – | – | –
2 | C11G C61U | < 1e-05 | – | < 1e-05 | < 1e-05 | < 1e-05 | < 1e-05 | –
3 | C11A A39C | 3.87e-05 ± 5.2e-06 | – | – | – | 4.76e-05 ± 1.5e-05 | 3.53e-05 ± 7.7e-06 | –
4 | C10G C11U C67G | 3.06e-05 ± 8.7e-06 | 5.14e-05 ± 2.4e-05 | – | – | – | – | –
5 | A12C A52G | 0.000882 ± 0.00021 | 0.000216 ± 2.4e-05 | 2.37e-05 ± 1e-05 | 4.98e-05 ± 1.3e-05 | 0.000359 ± 6.3e-05 | 0.00082 ± 0.00011 | 2290 ± 880
6 | A12G C34U C58U C68G | 3.16e-05 ± 4.5e-06 | – | – | – | – | – | –
7 | C11A U47A | 8.3e-05 ± 1.6e-05 | – | – | – | 5.35e-05 ± 2.1e-05 | 6.56e-05 ± 1.8e-05 | –
8 | G9U C71U | < 1e-05 | < 1e-05 | < 1e-05 | < 1e-05 | – | < 1e-05 | –
9 | C10U C68U | 1.42e-05 ± 6.5e-06 | – | < 1e-05 | – | – | – | –
10 | C10A C50A | 2e-05 ± 5.5e-06 | – | – | – | – | – | –
11 | C11A A12C | 0.00026 ± 5.5e-05 | 0.000103 ± 1.8e-05 | – | 4.82e-05 ± 1.5e-05 | 0.000182 ± 3.2e-05 | 0.000406 ± 0.00015 | 900 ± 380
12 | C11U U47G | 0.000176 ± 3.3e-05 | 7.97e-05 ± 1.3e-05 | – | – | 0.000191 ± 3.3e-05 | 0.000149 ± 2.2e-05 | –
13 | C10U C34A C50A G51U C70A | 5.4e-05 ± 1.3e-05 | – | – | – | – | 7.55e-05 ± 2.9e-05 | –
14 | C11A U55G | 0.000167 ± 5.3e-05 | 3.28e-05 ± 1.1e-05 | – | – | 0.000159 ± 2.4e-05 | 0.000125 ± 2.1e-05 | –
15 | C11A U55A | 0.000149 ± 2.2e-05 | 0.000125 ± 4e-05 | – | – | 0.000203 ± 4.1e-05 | 0.000135 ± 1.4e-05 | –
16 | C10U C16U | 1.06e-05 ± 1.7e-06 | – | – | – | – | – | –
17 | C11U C68U | 0.000418 ± 5.2e-05 | 0.000135 ± 1.7e-05 | – | 6.59e-05 ± 1.1e-05 | 0.000329 ± 3.1e-05 | 0.00036 ± 3.9e-05 | 1070 ± 290
18 | C11U A15G | 0.00211 ± 0.00043 | 0.000746 ± 8.9e-05 | 0.000103 ± 1.4e-05 | 0.000249 ± 4.3e-05 | 0.00141 ± 0.00022 | 0.0023 ± 0.00037 | 1010 ± 320
19 | C11U A15U | 0.000594 ± 3.8e-05 | 0.000178 ± 2.4e-05 | – | 4.54e-05 ± 1.7e-05 | 0.000375 ± 5.4e-05 | 0.000511 ± 4.5e-05 | 1540 ± 230
